1 substance from patent US6753315 can be followed below.

This test has as its target Torpedo nicotinic acetylcholine receptor (nAChR-enriched membranes) (Torpedo (species not stated)) (UniProt P02710).

In turn, “Pichia-expressed, purified recombinant α-bungarotoxin (rBgtx) (from UniProt P60615 22-95) (ligand)” returned a reduction in 125I-Bgtx bound of 45%.
